Measured values from the supplement of paper PMC9233669.
Variants at the floor of the assay were thinned out.

Columns and labels:
biotinyl-Ile-oxazolone = experiment: self-aminoacylation, catalytic enhancement (BIO) (fold over background); higher = more active; k-Seq, kA / k0A0; sequences stand for … in GGGAAUGGAUCCACAUCUACGAAUUC…UUCACUGCAGACUUGACGAAGCUG
How it was run: (§1)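 Mutagenized RNA pools with a 21-nt variable region (0.43 μM) were reacted with each biotinyl-aminoacyl-oxazolone at 2–1250 μM for 90 minutes at room temperature, in 50 μL HEPES/NaCl/KCl/MgCl2/CaCl2 buffer containing 5% acetonitrile at pH 6.9–7.0. RNA captured on streptavidin was quantified by triplicate qPCR and by Illumina sequencing. The fraction reacted for each sequence was fit to a pseudo-first-order model with bootstrapping, and catalytic enhancement is the median kA divided by the uncatalyzed rate, taken as the low-activity peak of a bimodal Gaussian fit.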

biotinyl-Leu-oxazolone = experiment: self-aminoacylation, catalytic enhancement (BLO) (fold over background); higher = more active; k-Seq, kA / k0A0; sequences stand for … in GGGAAUGGAUCCACAUCUACGAAUUC…UUCACUGCAGACUUGACGAAGCUG
How it was run: as §1

biotinyl-Met-oxazolone = experiment: self-aminoacylation, catalytic enhancement (BMO) (fold over background); higher = more active; k-Seq, kA / k0A0; sequences stand for … in GGGAAUGGAUCCACAUCUACGAAUUC…UUCACUGCAGACUUGACGAAGCUG
How it was run: as §1

biotinyl-Trp-oxazolone = experiment: self-aminoacylation, catalytic enhancement (BWO) (fold over background); higher = more active; k-Seq, kA / k0A0; sequences stand for … in GGGAAUGGAUCCACAUCUACGAAUUC…UUCACUGCAGACUUGACGAAGCUG
How it was run: as §1

biotinyl-Phe-oxazolone = experiment: self-aminoacylation, catalytic enhancement (BFO) (fold over background); higher = more active; k-Seq, kA / k0A0; sequences stand for … in GGGAAUGGAUCCACAUCUACGAAUUC…UUCACUGCAGACUUGACGAAGCUG
How it was run: as §1

biotinyl-Val-oxazolone = experiment: self-aminoacylation, catalytic enhancement (BVO) (fold over background); higher = more active; k-Seq, kA / k0A0; sequences stand for … in GGGAAUGGAUCCACAUCUACGAAUUC…UUCACUGCAGACUUGACGAAGCUG
How it was run: as §1

| Sequence | self-aminoacylation (biotinyl-Ile-oxazolone) | self-aminoacylation (biotinyl-Leu-oxazolone) | self-aminoacylation (biotinyl-Met-oxazolone) | self-aminoacylation (biotinyl-Trp-oxazolone) | self-aminoacylation (biotinyl-Phe-oxazolone) | self-aminoacylation (biotinyl-Val-oxazolone) |
| --- | --- | --- | --- | --- | --- | --- |
| AAGUUUACUAAUAGACGCAAG [Fam3.1 aminoacylation ribozyme variant] | 0.695 | 0.638 | 0.816 | 0.834 | 1.15 | 1.03 |
| AAGUUUACUAUUAGUCGCAAG [Fam3.1 aminoacylation ribozyme variant] | 1.83 | 1.49 | 1.59 | 2.02 | 2.72 | 1.76 |
| AAGUUUCCUAAGAGUCGCAAG [Fam3.1 aminoacylation ribozyme variant] | 1.29 | 1.24 | 1.04 | 0.936 | 1.17 | 1.31 |
| AAGUUUCCUAAUAGACGCAAG [Fam3.1 aminoacylation ribozyme variant] | 0.82 | 0.671 | 0.632 | 0.895 | 1.32 | 0.805 |
| AAGUUUCCUAAUAGUCGCAAC [Fam3.1 aminoacylation ribozyme variant] | 1.59 | 1.5 | 1.73 | 2.18 | 2.42 | 1.31 |
| AAGUUUCCUAAUAGUCGCUAG [Fam3.1 aminoacylation ribozyme variant] | 1.61 | 1.39 | 1.78 | 1.97 | 2.18 | 1.67 |
| AAGUUUCCUAAUAGUCGUAAG [Fam3.1 aminoacylation ribozyme variant] | 1.2 | 1.07 | 1.18 | 1.27 | 2.58 | 1.07 |
| AAGUUUCGUAAUAGUCGCAAG [Fam3.1 aminoacylation ribozyme variant] | 1.63 | 1.78 | 1.27 | 1.61 | 2.26 | 1.33 |
| AAGUUUGAUAACAGUCGCAAG [Fam3.1 aminoacylation ribozyme variant] | 0.929 | 0.548 | 0.877 | 0.569 | 0.983 | 0.798 |
| AAGUUUGAUAAUAGCCGCAAG [Fam3.1 aminoacylation ribozyme variant] | 1.29 | 1.05 | 1.37 | 1.19 | 1.32 | 1.14 |
| AAGUUUGAUAAUAGUAGCAAG [Fam3.1 aminoacylation ribozyme variant] | 0.724 | 0.535 | 0.756 | 0.667 | 0.835 | 0.691 |
| AAGUUUGAUAAUGGUCGCAAG [Fam3.1 aminoacylation ribozyme variant] | 0.891 | 0.895 | 0.785 | 0.581 | 1.47 | 0.644 |
| AAGUUUGAUAUUAGUCGCAAG [Fam3.1 aminoacylation ribozyme variant] | 1.45 | 1.54 | 1.24 | 1.31 | 1.72 | 1.4 |
| AAGUUUGCAAAAAGUCGCAAG [Fam3.1 aminoacylation ribozyme variant] | 0.902 | 0.938 | 1.07 | 0.831 | 1.72 | 0.733 |
| AAGUUUGCAAAUACUCGCAAG [Fam3.1 aminoacylation ribozyme variant] | 0.898 | 0.897 | 0.701 | 0.774 | 2.14 | 0.798 |
| AAGUUUGCAAAUCGUCGCAAG [Fam3.1 aminoacylation ribozyme variant] | 1.09 | 1.18 | 0.985 | 1.21 | 0.933 | 0.93 |
| AAGUUUGCAAGUAGUCGCAAG [Fam3.1 aminoacylation ribozyme variant] | 0.95 | 0.731 | 1.06 | 1.06 | 1.14 | 0.914 |
| AAGUUUGCAUAUAGUCGCAAG [Fam3.1 aminoacylation ribozyme variant] | 0.762 | 0.744 | 0.636 | 0.826 | 0.843 | 0.961 |
| AAGUUUGCCAAUAGUCACAAG [Fam3.1 aminoacylation ribozyme variant] | 1.55 | 1.07 | 1.56 | 1.04 | 1.1 | 1.23 |
| AAGUUUGCCAAUAGUCCCAAG [Fam3.1 aminoacylation ribozyme variant] | 1.21 | 0.831 | 1.1 | 1.27 | 0.931 | 1.04 |
| AAGUUUGCGAAAAGUCGCAAG [Fam3.1 aminoacylation ribozyme variant] | 1.46 | 1.8 | 1.8 | 1.3 | 2.82 | 1.43 |
| AAGUUUGCGAAUAGUCACAAG [Fam3.1 aminoacylation ribozyme variant] | 1.17 | 0.774 | 0.933 | 0.863 | 1.66 | 0.962 |
| AAGUUUGCGAAUAGUCGCAAC [Fam3.1 aminoacylation ribozyme variant] | 1.66 | 1.32 | 1.33 | 1.46 | 7.2 | 1.4 |
| AAGUUUGCGAAUAGUCGCAGG [Fam3.1 aminoacylation ribozyme variant] | 1.7 | 1.89 | 1.79 | 2.44 | 4.04 | 1.59 |
| AAGUUUGCUAAAAGUCGCUAG [Fam3.1 aminoacylation ribozyme variant] | 0.911 | 0.944 | 0.781 | 0.783 | 1.38 | 0.803 |
